Results from paper PMC3621209, “Biochemical properties of a novel thermostable and highly xylose-tolerant β-xylosidase/α-arabinosidase from Thermotoga thermarum” (Biotechnology for Biofuels, 2013).

Legend:
[1] = target: Tth xynB3 β-xylosidase from Thermotoga thermarum DSM 5069 (Thermotoga thermarum DSM 5069); experiment: SEC; Superdex 200 10/30 GL column on an ÄKTA FPLC system; MW calculated from the calibration curve of the gel filtration column; oligomerization state of the purified native protein
[2] = substrate: O=[N+]([O-])c1ccc(O[C@@H]2O[C@@H](CO)[C@H](O)[C@H]2O)cc1; experiment: purified protein; assay type: biochemical, Pseudothermotoga thermarum; conditions: 50 mM imidazole-potassium buffer pH 6.0, 85°C (standard conditions; text says optimal conditions)
[3] = substrate: O=[N+]([O-])c1ccc(O[C@@H]2OC[C@@H](O)[C@H](O)[C@H]2O)cc1; experiment: purified protein; assay type: biochemical, Pseudothermotoga thermarum; conditions: 50 mM imidazole-potassium buffer pH 6.0, 85°C (standard conditions; text says optimal conditions)

Tth xynB3 β-xylosidase from Thermotoga thermarum DSM 5069 (enzyme)
stoichiometry N [1]: 5

B1: Tth xynB3 β-xylosidase (Pseudothermotoga thermarum DSM 5069) (protein)
chain: MDLYKNPNVPAKVRAKDLLSKMTLEEKIAQLGSVWSYELLTEDGKFSVEKAKEILKHGIGQITRPGGATNFEPPEVAKLVNEIQKFLVENTRLGIPAIMHEECLAGYMGLGATIFPQPIGMASTWDPELVEKITSAIREDLRKLGITQGLAPVLDVARDPRWGRTEETFGESPYLVAKMGVAYVKGLQGSDITKGVVATGKHFAGYSASEGGKNWAPTNIPPRELREVFLYPFEAAVKEAGLLSIMNSYSEIDGIPCASNRELLTDILRRTWGFEGIVVSDYFAVDMLAAYHRMAKNKAEAAKYALEAGIDIELPKTDCYLHLKSLVENGIISEKLLDEAVLRVLTLKFLLGLFENPYAEGGSLNDHNDIALEASRKSIVLLKNNGILPLKNDVKIALVGPTANDVRNLLGDYSYLVHIKTLLENVNATTFNAPKFNLKKVEELVEAHLKKIPSILAEFAKRAKEIYYAKGCDITDPSREGFAEALEAAKKADVVVAVVGDRSGLTIECTSGESRDMANLKLPGVQEEFILELTKVGKPIVVVLVTGRPYSLKAFVNKVNAIVQLWLPGETGAQALAEVIFGQVNPSGKLPISFPASAGQIPVFHYVKPSGGRSCWHGNYVDEDVKPLFPFGHGLSYTTFSYTNLRIEQQEIPIAGSVKLKVDVQNTGEIYGEEVVQLYISREHASVTRPVKELKGFARVKLQPKETKTVVFEIHTDVLAYYDRDMKLVVEPGEYKVLIGSSAEDIRCQGNFKVVGEKRLVQDNRVFFTNTKIE
notes: full length, 774 residues (2,322 bp), pET-20b NdeI/XhoI in E. coli BL21 (DE3), Ni-NTA purified after heat treatment; theoretical monomer 85,129 Da; 5-mer in solution (422,474 Da); primers […]; (N-terminal MDLYKNPNV)
Km [2]: 210 µM
Km [3]: 270 µM
